Here are results for one molecule from patent US20180193437A1 (UNIVERSITY OF FLORIDA RESEARCH FOUNDATION, published 2018).

This assay addresses T1, rabbit IFNγ (rabbit, UniProt P30123 24-167).
T1 construct: also called rabbit IFNgamma; interferon gamma
T1 sequence (looked up): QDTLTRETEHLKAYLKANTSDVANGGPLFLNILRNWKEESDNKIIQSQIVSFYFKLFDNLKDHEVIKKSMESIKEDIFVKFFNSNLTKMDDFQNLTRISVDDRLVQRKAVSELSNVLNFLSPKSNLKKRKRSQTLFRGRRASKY
In words: binding data, method not described.

B1: M-T7 point mutation E209I (other)
chain: VRLTSYDLNTFVTWQDDGYTYNVSIKPYTTATWINVCEWASSSCNVSLALQYDLDVVSWARLTRVGKYTEYSLEPTCAVARFSPPEVQLVRTGTSVEVLVRHPVVYLRGQEVSVYGHSFCDYDFGYKTIFLFSKNKRAEYVVPGRYCDNVECRFSIDSQESVCATAVLTYDGSYRSEAGVEVCVPELAKRIVSPYIVKKSSDLEYVKRAIHNEYRLDTSSEGRRLEELYLTVASMFERLVEDVFE
notes: The mutant was made by mutagenic PCR of the His-tagged M-T7 construct; also called M-T7 (E209I); not shown: C-terminal His tag (His6x)
Turning to B1, the binding result is “no binding”.
